B1: CC2 fragment of nPIST (140th - 210th aa) (domain or fragment)
chain: QSVDSGAIKAKLSVHSVEDLERELEANKTEKVKEARLEAEVKLLRKENEALRRHIAVLQAEVYGARLAAKY
B2: CC1 fragment of nPIST (1st - 138th aa) (domain or fragment)
chain: MSAGGPCPAGAGGGPGGSSCPVGVSPGGVSMFRWLEVLEKEFDKAFVDVDLLLGEIDPDQADITYEGRQKMTSLSSCFAQLCHKAQTVSQINHKLEAQLVDLRSELTETQAEKVVLEKEVHEQLLQLHSTQLQLHAKT
B3: CC-WH2 fragment of nPIST (1st - 267th aa) (domain or fragment)
chain: MSAGGPCPAGAGGGPGGSSCPVGVSPGGVSMFRWLEVLEKEFDKAFVDVDLLLGEIDPDQADITYEGRQKMTSLSSCFAQLCHKAQTVSQINHKLEAQLVDLRSELTETQAEKVVLEKEVHEQLLQLHSTQLQLHAKTGQSVDSGAIKAKLSVHSVEDLERELEANKTEKVKEARLEAEVKLLRKENEALRRHIAVLQAEVYGARLAAKYLDKELAGRVQQIQLLGRDMKGPAHDKLWNQLEAEIHLHRHKTVIRACRGRNDLKRPM
B4: WH2 fragment of nPIST (200th - 289th aa) (domain or fragment)
chain: EVYGARLAAKYLDKELAGRVQQIQLLGRDMKGPAHDKLWNQLEAEIHLHRHKTVIRACRGRNDLKRPMQAPPGHDQDSLKKSQGVGPIRK

The binders below were run against F-actin (filamentous actin) (rabbit, UniProt P68135 1-377) (assay: co-sedimentation).
B1: binds.
B2: binds.
B3: binds.
B4: binds.

From publication doi:10.1101/270363 (bioRxiv, 2018)
